# Test: soluble on expression in E. coli; label from the status in PepcDB or PDB records
row,Sequence,soluble on expression in E. coli
1,MDRMKIEAVIFDWAGTTVDYGCFAPLEVFMEIFHKRGVAITAEEARKPMGLLKIDHVRALTEMPRIASEWNRVFRQLPTEADIQEMYEEFEEILFAILPRYASPINAVKEVIASLRERGIKIGSTTGYTREMMDIVAKEAALQGYKPDFLVTPDDVPAGRPYPWMCYKNAMELGVYPMNHMIKVGDTVSDMKEGRNAGMWTVGVILGSSELGLTEEEVENMDSVELREKIEVVRNRFVENGAHFTIETMQELESVMEHIEKQELIIS,soluble
2,MDRQAIEKTAGHLRPLMPTPPEIGLILGSGLGVLADEIEEAVRIPYEDIPGFPVSTVEGHAGRLVYGRLEGATVVAMQGRFHYYEGYSLQEVTFPVRVMKALGVRELIVTNAAGGINERFQPGDFMIISDHINLLGTNPLIGPNDPELGPRFPDMTEAYSRRLRELAKETAARLGVRVHEGVYVANTGPSYETPAEIRMIRTLGGDAVGMSTVPEVIVARHGGIEVLGISCISNMAAGMSDAPLHHDEVVETAERVKTDFLRFVKAIVAEMAKSKRKR,soluble
3,MDSPIINEQFWDALFFNGTMPWDRSQTPNELKHYLKRIADKTHSVFIPGCGAAYEVSHFVDCGHDVIAMDYSAEAVNLAKSQLGQHQDKVMLGDVFNADFSREFDVIYERAFLAALPREIWGDYFAMIERLLPSNGLLVGYFVISDDYRSRFPPFCLRSGEIEQKLEANFHLIESTPVTDSVDVFKGKEQWMVWQKLEHHHHHH,not soluble
4,MDSYGYIETMGLLTAIEAADAALKAANVVFTNCYIVKGGIVTVELAGDVAAVTAAVEAGSESARKLGNFISKNVIARVDDETKKILKGDTFISDNNKDGKTEKEISEEELLQNEMEKEEESIEELDALEEIIKADIPTAEGDIPLYDEVIKSPEFSELENDEEAKIITETVKRNDSDGEPYETQEKITVIEEEINTKQTNNNTDYENMKVTDLRGIVKELNSHLTWNQVKAMNKKKLVETLKKNKREK,not soluble
5,MDSYTSSDEDASRKENEGLNMLNASPEPMEEDDPEEQAEQEEETSRMARPIRSMRKRETTSGESMGDEDEDLEDEEDEDEEAEAREHHESGAHDTSFSNPLSNVDNLIHVGTEYQAIIQPTAEQLEKEPCRDQQIWAFPDEMNENRLTEYISEATGRYQLPIDRALFILNKQSNDFDAAMVQAMRRKEIHDDWTAEEISLFSTCFFHFGKRFKKIHAAMPQRSLSSIIQYYYNTKKVQNYKTMINVHLNETDTYDELFKEVNHLERVPSGYCENCNAKSDLLILNRVMSRHECKPCILYFRLMRVPRPASLRALTKRRQRVLCPEYMKIYVYGYLELMEPANGKAIKRLGIGKEKEEDDDIMVVDDCLLRKPSGPYIVEQSIEADPIDENTCRMTRCFDTPAALALIDNIKRKHHMCVPLVWRVKQTKCMEENEILNEEARQQMFRATMTYSRVPKGEIANWKKDMMALKGRFERFTPELDTTATNGNRSGKVRINYGWSPEEKKNAIRCFHWYKDNFELIAELMATKTVEQIKKFYMDNEKLILESIDTYRAELKSKLGK,not soluble
6,MDTEDTSGYSSLKSSPQSSDENFFKRLQWGKIRLELKTPEFLKESSELEIEKNEKSGIQKCGENEGENEEKCEFRPVVTPNEIDSHKEWYHRLLMLKLEYKRGERGAFPPFPPPPLPSMMIAASNAVSFNAFDEVKRAAQAKTAKSPSTSSLERRAQRFCPADFQPLPPPHIYIEMIRTLAPHQYIDLTYALAGSVLLEMGVKIPDRYPNLPPKIEPYRDIESEEAAHWTEMSSQSSSEGEYSDASESAKLVQTLNRRKNKERRETRKIRIVASMLTSSTFSMKKKRKNEGLDFKHETFPRDYDYKEKTLSTFIPPRIARRPPIPPPQFFFPPSPHFSREPHSLPPMPMMLPIPLPPMSLSSPISPIHFQKNLQSTPERPSRTDSSRVHAKQIKNDIIIVEKVTDV,not soluble
7,MDTKPPIERSMYIELRTSLEMFRGDLVDLEALANASRDALDQLPFVPKGAKTDHDEAHPNPDPESALRSGRLDSLVCATASAAQSALVTCVKLIDWAYEYEPDDEDDDDDDMVPMDDIDDDDDDDDDDENGGSSGANGGGSNGSGRSGPPDDNGAGAASASVADEFANARPSRGGIVLDLPTRASTTDGPVDAR,not soluble
8,MDTLHQQLCTHSGSTSPKGLYLWGDVGRGKTFLMDLFYDALPQRGKLRLHFHRFMARVHQALKVHAGQRDPLKLIAKNLAKECKVLCFDEFFVSDIGDAMILAGLFETLFAQGVVLVATSNIPIERLYENGLARHRFLPCIALLQAHTQMLHLNGKQDHRLHALSAKPSAEALAATSHNIGLTGTLDFDGIFAALTQNSPSIKDGKLRVCQREISVIRATTENQLPSVAWFDFNALCDGPRSQLDYIEIASRFKVLMLSNVPRLGGEVKGWIRARGTEDGTGDNQAATTGERQLSYAVNDDPARRFISLIDELYDQDVSLYLSCDVPLTELYQGGALSFEFRRTYSRLIEMSHSAAMKLTY,not soluble
9,MDVAALVSGGVDSSVVVHRLCEEGYKPAIFYIRIGMEDKDGYIDCPAEEDIELTTLIARRYGCPFEVVDLHKEYWERVVSYTVETVRRGLTPNPDMMCNKLIKFGCFEERWGYQFDRIATGHYATTDLLNGKTYLSTAKDPVKDQTDFLAQINFAQISKLMFPIGHLLKSEVRAIANAAGLPSAKRKDSQGICFLGKIDYNDFIERYLGKKEGRIIELETGKVIGRHQGYWFHTIGQRKGLGLSGGPWFVVKKDIKRNIILVSRGYDPDAQYGKTIEMETFDFITEDAYEAGYWNREDATPVTFKIRHTPEFTRGLLYKGEKGYRLESEERIQGIAPGQYCVIYDEDHHLCYGSGMITKGR,not soluble
10,MDVKNAFVETAMGVLSEFGFSSVFAEKNETGGLVEAEYVNVVMGVNGAISGNLIMTAKKESALAIASAMLGGMEFTEVDDMVKSAIGELLNIIAGNAFSKVDVKAAVYISTPTLLIGEGISVLLQSPGTNKLVFDMDGQSMDVFLDIE,not soluble
11,MDVMALKREVIEYSRSIGIDKIGFASADPFVELKERLRRQQELGYQSGFEEPDIEKRTNPSLLLPEAKSIIAIALAYPSKMKNAPRGTKTERRGVFCRASWGKDYHDVLRERLQQLEEFLLAKVPHARVRSMVDTGELADRAVAERAGIGWSGKNCSIITPEFGSYVYLGEMITNIPFPPDEPVENRCGTCTKCIDACPTGALVQGGQLNAQRCLSFLTQTKGFLADEFREKIGNRLYGCDTCQQVCPENKGKDFHLHPEFEPDPEAVKPKLIPLLQMSNREFKETFGAMAGSWRGKKPIQRNAILALAHYKDQTAVPHLLRLLKEDSRPVIRGTAAWALGKIGDPSAKSYLEAARPTEADADVIAEIEKGLKLLAEAKE,not soluble
12,MDVMNAFDSQAEDSPTSLGRSLRRRPLARKKLSEMVEEELEQMIRRHEFGEGEQLPSERELMAFFNVGRPSVREALAALKRKGLVQINNGERARVSRPSADTIISELSGMAKDFLTHPGGIAHFEQLRLFFESSLVRYAAEHATDEQIALLTKALEINSQSLDDNALFIRSDVEFHRVLAEIPGNPIFMAIHVALLDWLIAARPSVPDRELHEHNNVSYQQHIVIVDAIRQRDPDKADRALQTHLNSVSATWHALGKKSQKMR,not soluble
13,MDVSFEFEHYQVRLIKSSDAVTIANYFMRNRHHLAPWEPKRSHAFFTPEGWKQRLLQLVELHKHNLAFYFVVVDKNEHKIIGTVSYSNITRFPFHAGHVGYSLDSEYQGKGIMRRAVNVTIDWMFKAQNLHRIMAAYIPRNEKSAKVLAALGFVKEGEAKKYLYINGAWEDHILTSKINDDWKPE,not soluble
14,MDWDDEYSHNSFDLHCLLNSFPGDLEFEQIFSDIDEKIEQNAASIKHCIKEIQSEINKQCPGVQLQTTTDCFEWLTNYNYSTSESSFISHGDLIKFFKTLQDLLKNEQNQEEMTLDLLWDLSCHSSVSFPSTLSGTSFHFLSRTSLHSVEDNSSMDVKSMWDDIRLHLRRFLVSKLQSHNEINNSQQKILLKKQCLQQLLFLYPESEVIIKYQNIQNKLLANLLWNCFPSYNRDSNLDVIAHGYQSTMLKLYSVIKEDFNTLCEILAPSSMVKFIKETYLDTVTEEMAKFLENFCELQFRENAVRVVKTSKSSSKHRGAVHALG,soluble
15,MDWFGVDAGTLREGDRADFVVIDPNCLNSDVDAYHEETVPFYGGLSRMVNRNDDAVVATAVNGTVVFGKGEFRDGYGLEHHHHHH,not soluble
16,MDWKITIFTYNLAMKASDSEAVHNMLNGMIDDHTHLVAIGLQEVAHSETIGGAVLTWATTIASWMNTNGRMVLLAKTFQATNQVLIFGRKQLIGQIKRIDYRFQRNTMGGLTGHKGSIGVRLQLASPYSIVFVDSHFIHGPENYGKRVEQYHTNRNCSFPEDKSVRAAFWFGDFNFRVEEDVNTVIRKIKNGTHLELLDTREQLKRALVERDAFIGFHEQPVTFEPTYRVTVGTTEQDGKRVPSWTDRILYKGDGITGLSYTNNKKAVASDHLPVVAMFRVTAPAAPKPQWEVIFEHLPTWYTSIPLVGRFQVNELYYKENGSYRDWIGVFPSSINDCTTATNWIYAATCFEQVIEGSKFLACEFNNIPAGNYRLGYFSCHLHCLVGLSKVFQIVEQP,not soluble
17,MDWNHYRFRSRWPLPAPAPDVYRALERIEDYPRWWPQVREVTRLDDTSGLLRFRSLLPYDLTATVREQRRDPTEGVLEVAMSGDMEGWARWTVAPRGSASLVRYDQEVVVRKPLLRRLAVPGRPLFRANHRLMMRAGRRGLAAHLAGGRQAVLEHHHHHH,soluble
18,MDYDRYKLFVGGIAKETSEEALKQYFSRYGAVLEAVVAKEKVTGKPRGFGFVRFANDCDVVKALRDTHFILGKPVDVRKAIRKHELYQQPFSMQFLERKVQQMNGGLREMSSNGVTSRTKKIFVGGLSSNTTEEEFKSYFERFGRTTDVVVMHDGVTNRPRGFGFVTYDSEDSVEVVMQSNFHELSDKRVEVKRAIPKEGIQSNNGNAVNIPPSYSSFQATPYVPEQNGYGMVLQFPPPVFGYHHNVQAVQYPYGYQFTAQVANVSWNNPIMQPTGFYCAPPHPTPPPTNNLGYIQYMNGFDLSGTNISGYNPLAWPVTGDAAGALIHQFVDLKLDVHSQAHQRMNGGNMGIPLQNGTYI,soluble
19,MDYRVIKENDVFLLTDQDGNIPEHHPYGLGLYTKDTRFLSKWSLRINGEEPVLLASDAAQNYVATILLTNPHIERDGELILWRESVEIERKRFIYAGVLYETIKLKNYHPKPVQLEISVHMDADFADMFIVRGFQTGEVGKRTGQTIGKRSLTFHYEGADGVERATKVSWDREEKTVKEHGEIVFDFALDRAEEQTVTLMVEPITGKTGRVEVIPPEQALQRLQESYQRWEGETANVITDERQFERLVRRGIGDLRVLLTDLGCGPFPVAGLPWFGVPFGRDSLIAALQLLPFNHEIAKGTLLTMARYQGTKVDPWRDEQPGKIMHEIRFGELANTNQIPFTPYYGTIDATPLFLVLLVEYVKWTGNFDLVRQLRSNIDAALHWIDRYGDRDGDLFVEYFQESSKGIANQGWKDSGDSIVHENGEYARAPIALVEVQGYVYHAKMGLADIFEQLQEVEKAEALRTQAEALKKRFEEQFWMEDRKFYALALDENKAPVRTITSNPGHVLFSGMLEGRRADAVIDTLLSEKMFSGYGIRTMGEGEAGYNPMSYHNGSIWPHDNSLILLGLSKLGRRREAKTVIEGLMEASMHFEYDRLPELFCGYSRSEGKPVRYPVACSPQAWAAGTPLVFVQALLGLFPNALEKNIYLSPTLLDSMNMLRVENILIGGGRLSLTVTREQDNFHVQIDENTTGWDIVLR,not soluble
20,MDYVCSVVFICQSFDLIINRRVISFKKNSLFIVSDKIRRELPVCPSKLRIVDIDKKTCLSFFIDVNNELPGKFTLDKNGYIAEEEPPLSLVFSLFEGIKIADSHSLWLKERLCISLLAMFKKRESVNSFILTNINTFTCKITGIISFNIERQWHLKDIAELIYTSESLIKKRLRDEGTSFTEILRDTRMRYAKKLITSNSYSINVVAQKCGYNSTSYFICAFKDYYGVTPSHYFEKIIGVTDGINKTID,not soluble
